One data set relates to EPSPS enzymes. As to the kind of experiment: Kinetic characterization of EPSPS enzymes (Km PEP, Ki glyphosate). The conditions noted are these: for Ki/Km: Ki glyphosate / Km PEP; for Km: Km of the EPSPS enzyme for phosphoenolpyruvate, PEP ranges tested in table footnotes. Format: biochemical. As for the experimental part: The EPSPS enzymes from these microorganisms were then subjected to further study and analysis.
When the change introduced into the Petunia EPSPS (GA101) was introduced into a number of other EPSPS enzymes, similar changes in kinetics were observed, an elevation of the Ki for glyphosate and of the Km for PEP.
All protein purification procedures were carried out at 3–5° C. EPSPS enzyme assays were performed using either the phosphate release or radioactive HPLC method, as previously described in Padgette et al., 1987, using 1 mM phosphoenol pyruvate (PEP, Boehringer) and 2 mM shikimate-3-phosphate (S3P) substrate concentrations. For radioactive HPLC assays, ^14C-PEP (Amersham) was utilized. S3P was synthesized as previously described in Wibbenmeyer et al. 1988. N-terminal amino acid sequencing was performed by loading samples onto a Polybrene precycled filter in aliquots while drying. Automated Edman degradation chemistry was used to determine the N-terminal protein sequence, using an Applied Biosystems Model 470A gas phase sequencer (Hunkapiller et al., 1983) with an Applied Biosystems 120A PTH analyzer.

A further data set has as its target T1, B. subtilis EPSPS (Bacillus subtilis, UniProt P20691).
T1 construct: Standard EPSPS assay reactions contained crude bacterial extract; endogenous in cells; host or cells: Bacillus subtilis 1A2 crude extract; some values from E. coli GB100 carrying pMON21133 (subclone) or pMON21132 (PCR clone)
As to the kind of experiment: EPSPS assay and kinetics of B. subtilis EPSPS in crude bacterial extract. Conditions: for EPSPS specific activity: crude extract. Format: biochemical. As for the experimental part:
Bacillus subtilis 1A2 (prototroph) was obtained from the Bacillus Genetic Stock Center at Ohio State University. Standard EPSPS assay reactions contained crude bacterial extract with, 1 mM phosphoenolpyruvate (PEP), 2 mM shikimate-3-phosphate (S3P), 0.1 mM ammonium molybdate, 5 mM potassium fluoride, and 50 mM HEPES, pH 7.0 at 25° C. One unit (U) of EPSPS activity is defined as one μmol EPSP formed per minute under these conditions. For kinetic determinations, reactions contained crude bacterial, 2 mM S3P, varying concentrations of PEP, and 50 mM HEPES, pH 7.0 at 25° C. […] When the assays were performed in the presence of 1 mM glyphosate, 100% of the EPSPS activity was retained. The appKm(PEP) of the B. subtilis EPSPS was determined by measuring the reaction velocity at varying concentrations of PEP. The results were analyzed graphically by the hyperbolic, Lineweaver-Burk and Eadie-Hofstee plots which yielded appKm(PEP) values of 15.3 μM, 10.8 μM and 12.2 μM, respectively. These three data treatments are in good agreement, and yield an average value for appKm(PEP) of 13 μM. The appKi(glyphosate) was estimated by determining the reaction rates of B. subtilis 1A2 EPSPS in the presence of several concentrations of glyphosate, at a PEP concentration of 2 μM.
The other approach to the isolation of the B. subtilis aroE gene, subcloning from ECE13 into pUC118, was performed as follows: • (i) Cut ECE13 and pUC with XmaI and SphI. • (ii) Isolate 1700 bp aroE fragment and 2600 bp pUC118 vector fragment. • (iii) Ligate fragments and transform into GB100. The subclone was designated pMON21133 and the PCR-derived clone was named pMON21132. Clones from both approaches were first confirmed for complementation of the aroA mutation in E. coli GB100. […] These specific activities reflect the expected types of expression levels of the two vectors. […] The appKm(PEP) and the appKi(glyphosate) of the subcloned B. subtilis EPSPS (pMON21133) were determined as described above. […] Characterization of the EPSPS Gene from Staphylococcus aureus

In the next data set the target is T2, CP4 EPSPS (Agrobacterium sp., UniProt Q9R4E4, S2A).
T2 construct: made in house; host or cells: E. coli, PRecA-gene10L vector
T2 sequence (Q9R4E4 whole entry S2A): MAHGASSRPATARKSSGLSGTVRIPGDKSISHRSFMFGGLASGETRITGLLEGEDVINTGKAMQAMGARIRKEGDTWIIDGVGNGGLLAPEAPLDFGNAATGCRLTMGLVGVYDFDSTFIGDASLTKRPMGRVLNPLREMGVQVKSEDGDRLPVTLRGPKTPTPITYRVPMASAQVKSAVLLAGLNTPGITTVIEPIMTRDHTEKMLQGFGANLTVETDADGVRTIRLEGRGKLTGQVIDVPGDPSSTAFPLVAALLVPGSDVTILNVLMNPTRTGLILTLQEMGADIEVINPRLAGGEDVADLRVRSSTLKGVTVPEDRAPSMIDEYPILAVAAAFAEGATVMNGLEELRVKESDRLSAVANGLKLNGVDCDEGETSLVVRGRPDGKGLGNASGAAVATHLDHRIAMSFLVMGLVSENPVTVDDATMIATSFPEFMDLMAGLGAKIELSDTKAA
As to the kind of experiment: EPSPS activity from native and synthetic CP4 EPSPS genes expressed in E. coli. Format: biochemical, Agrobacterium sp. strain CP4. From the text:
A synthetic CP4 gene was designed to change as completely as possible those inimical sequences discussed above. In summary, the gene sequence was redesigned to eliminate as much as possible the following sequences or sequence features (while avoiding the introduction of unnecessary restriction sites): stretches of G's and C's of 5 or greater; and A+T rich regions (predominantly) that could function as polyadenylation sites or potential RNA destabilization region The sequence of this gene is shown in FIG. 8 (SEQ ID NO:9). This coding sequence was expressed in E. coli from the RecA promoter and assayed for EPSPS activity and compared with that from the native CP4 EPSPS gene. […] The N-terminus of the coding sequence was mutagenized to place an SphI site at the ATG to permit the construction of the CTP2-CP4 synthetic fusion for chloroplast import. The following primer was used to accomplish this mutagenesis:
The EPSPS gene was isolated originally from Agrobacterium sp. strain CP4 and expresses a highly tolerant enzyme. The original gene contains sequences that could be inimical to high expression of the gene in some plants. […] The high G+C % in the CP4 EPSPS gene could also result in the formation of strong hairpin structures that may affect expression or stability of the RNA. A plant preferred version of the gene was synthesized and used for these vectors. This coding sequence was expressed in E. coli from a PRecA-gene10L vector (Olins et al., 1988) and the EPSPS activity was compared with that from the native CP4 EPSPS gene. […] The N-terminus of the coding sequence was then mutagenized to place an SphI site (GCATGC) at the ATG to permit the construction of the CTP2-CP4 synthetic fusion for chloroplast import. This change had no apparent effect on the in vivo activity of CP4 EPSPS in E. coli as judged by complementation of the aroA mutant. A CTP-CP4 EPSPS fusion was constructed between the Arabidopsis thaliana EPSPS CTP (Klee et al., 1987) and the CP4 EPSPS coding sequences. The Arabidopsis CTP was engineered by site-directed mutagenesis to place a SphI restriction site at the CTP processing site. This mutagenesis replaced the Glu-Lys at this location with Cys-Met. The CTP2-CP4 EPSPS fusion was tested for import into chloroplasts isolated from Lactuca sativa using the methods described previously (della-Cioppa et al., 1986: 1987).

Data set [1] concerns rabbit anti-EPSPS antibody. Kind of data set: Western analysis with rabbit anti-EPSPS antibody to the Petunia EPSPS protein. It is filed as binding. Conditions: crude extracts 50 μg protein; control Petunia EPSPS 20 ng; Protein A-125I development. The text has this:
The presence of EPSPS activity in these extracts was confirmed by enzyme assay. This surprising result, indicating a lack of similarity between the EPSPS's from these bacterial isolates and those previously studied, coupled with the combination of a low Km for PEP and a high Ki for glyphosate, illustrates that these new EPSPS enzymes are different from known EPSPS enzymes (now referred to as Class I EPSPS).

The mark [2] stands for this setting: 2 mM S3P, varying PEP, pH 7.0, 25° C.
[3] abbreviates: 1 mM PEP, 2 mM S3P, pH 7.0, 25° C.

The values that follow come from US7183110B2, “Antibody immunoreactive with a 5-enolpyruvylshikimate-3-phosphate synthase” (Monsanto Technology LLC, priority 1990, dated 2007).

B1: B. subtilis 1A2: Class II EPSPS from Bacillus subtilis 1A2 (SEQ ID NO:42) (protein, listed as Bacillus subtilis)
chain: MKRDKVQTLHGEIHIPGDKSISHRSVMFGALAAGTTTVKNFLPGADCLSTIDCFRKMGVHIEQSSSDVVIHGKGIDALKEPESLLDVGNSGTTIRLMLGILAGRPFYSAVAGDESIAKRPMKRVTEPLKKMGAKIDGRAGGEFTPLSVSGASLKGIDYVSPVASAQIKSAVLLAGLQAEGTTTVTEPHKSRDHTERMLSAFGVKLSEDQTSVSIAGGQKLTAADIFVPGDISSAAFFLAAGAMVPNSRIVLKNVGLNPTRTGIIDVLQNMGAKLEIKPSADSGAEPYGDLIIETSSLKAVEIGGDIIPRLIDEIPIIALLATQAEGTTVIKDAAELKVKETNRIDTVVSELRKLGAEIEPTADGMKVYGKQTLKGGAAVSSHGDHRIGMMLGIASCITEEPIEIEHTDAIHVSYPTFFEHLNKLSKKS
One may read the Km as the concentration of substrate that gives half-maximal velocity. As to B1, in the data set with EPSPS enzymes, the Ki/Km was found to be 33.8 and the Km was 13 µM. Moreover, in the data set with B. subtilis EPSPS (1 mM glyphosate, 1 mM PEP, 2 mM S3P), the “EPSPS activity retained in the presence of 1 mM glyphosate” value turned out to be 100%. Moreover, in the data set with B. subtilis EPSPS (setting [2]), the “appKm(PEP), Eadie-Hofstee plot” value stood at 12.2 µM; the “appKm(PEP), Lineweaver-Burk plot” value came to 10.8 µM; the “appKm(PEP), hyperbolic plot” value worked out at 15.3 µM. For the same molecule, the “average value for appKm(PEP)” value with B. subtilis EPSPS (average of three data treatments) turned out to be 13 µM. The same molecule displayed an EPSPS specific activity in the data set with B. subtilis EPSPS (setting [3]) of 0.003 U/mg.

B2: PG2982: Class II EPSPS enzyme from Pseudomonas sp. strain PG2982 (SEQ ID NO:7) (protein, listed as Pseudomonas sp.)
chain: MSHSASPKPATARRSEALTGEIRIPGDKSISHRSFMFGGLASGETRITGLLEGEDVINTGRAMQAMGAKIRKEGDVWIINGVGNGCLLQPEAALDFGNAGTGARLTMGLVGTYDMKTSFIGDASLSKRPMGRVLNPLREMGVQVEAADGDRMPLTLIGPKTANPITYRVPMASAQVKSAVLLAGLNTPGVTTVIEPVMTRDHTEKMLQGFGADLTVETDKDGVRHIRITGQGKLVGQTIDVPGDPSSTAFPLVAALLVEGSDVTIRNVLMNPTRTGLILTLQEMGADIEVLNARLAGGEDVADLRVRASKLKGVVVPPERAPSMIDEYPVLAIAASFAEGETVMDGLDELRVKESDRLAAVARGLEANGVDCTEGEMSLTVRGRPDGKGLGGGTVATHLDHRIAMSFLVMGLAAEKPVTVDDSNMIATSFPEFMDMMPGLGAKIELSIL
Turning to B2, in the data set on EPSPS enzymes, the Ki/Km was ~8–40 and the Km is 2.1 to 3.1 µM.

B3: synthetic CP4 gene: EPSPS enzyme expressed in E. coli from the synthetic CP4 gene (SEQ ID NO:9) (protein, UniProt Q9R4E4 1-455, looked up)
3-phosphoshikimate …: MSHGASSRPATARKSSGLSGTVRIPGDKSISHRSFMFGGLASGETRITGLLEGEDVINTGKAMQAMGARIRKEGDTWIIDGVGNGGLLAPEAPLDFGNAATGCRLTMGLVGVYDFDSTFIGDASLTKRPMGRVLNPLREMGVQVKSEDGDRLPVTLRGPKTPTPITYRVPMASAQVKSAVLLAGLNTPGITTVIEPIMTRDHTEKMLQGFGANLTVETDADGVRTIRLEGRGKLTGQVIDVPGDPSSTAFPLVAALLVPGSDVTILNVLMNPTRTGLILTLQEMGADIEVINPRLAGGEDVADLRVRSSTLKGVTVPEDRAPSMIDEYPILAVAAAFAEGATVMNGLEELRVKESDRLSAVANGLKLNGVDCDEGETSLVVRGRPDGKGLGNASGAAVATHLDHRIAMSFLVMGLVSENPVTVDDATMIATSFPEFMDLMAGLGAKIELSDTKAA
As to B3, the “appKm for PEP” value in the data set with CP4 EPSPS (expressed in E. coli from a PRecA-gene10L vector) was 12.7 µM. The Km in the data set with CP4 EPSPS (expressed in E. coli from the RecA promoter, read-out: apparent Km for PEP) is 12.7 µM.

B4: Petunia: native Petunia EPSPS, a Class I EPSPS (protein)
chain: KPSEIVLQPIKEISGTVKLPGSKSLSNRILLLAALSEGTTVVDNLLSSDDIHYMLGALKTLGLHVEEDSANQRAVVEGCGGLFPVGKESKEEIQLFLGNAGTAMRPLTAAVTVAGGNSRYVLDGVPRMRERPISDLVDGLKQLGAEVDCFLGTKCPPVRIVSKGGLPGGKVKLSGSISSQYLTALLMAAPLALGDVEIEIIDKLISVPYVEMTLKLMERFGISVEHSSSWDRFFVRGGQKYKSPGKAFVEGDASSASYFLAGAAVTGGTITVEGCGTNSLQGDVKFAEVLEKMGAEVTWTENSVTVKGPPRSSSGRKHLRAIDVNMNKMPDVAMTLAVVALYADGPTAIRDVASWRVKETERMIAICTELRKLGATVEEGPDYCIITPPEKLNVTDIDTYDDHRMAMAFSLAACADVPVTINDPGCTRKTFPNYFDVLQQYSKH
modifications: Petunia x hybrida
Regarding B4, in the data set on EPSPS enzymes, the Ki/Km amounted to 0.08 and the Km stood at 5 µM. Also, in data set [1], the “signal in Western analysis with rabbit anti-EPSPS antibody” value is given as “readily detected”.

B5: pMON21133: B. subtilis EPSPS (aroE) subcloned from ECE13 into pUC118, expressed in E. coli GB100 (protein, UniProt P54374 1-280, looked up)
Shikimate dehydrogenase …: MKKLYGVIGNPIGHSMSPDIHNASLKDLGLDGHYHAFKVEENDLEDAVKGIRALGVQGINVTVPHKVSIMDYLDHIDESAKVLGAVNTVRREGDKLVGYNTDGEGFVKSLMKVLDKPISELSFLMIGAGGAARAIFTTIVRNTPKKFDICNRTLEKAKRLTEATPSFHNKEVLSIKEAEERLEQYDVIIHTTSVGMYPNVDDVPLSLQRAASSAVVCDIVYNPIQTALLKEASQKGLKTLDGVGMFVEQAALSFQLWTGQEPNIEKMRSIVIGKLGGTEC
The molecule B5 showed an EPSPS specific activity with B. subtilis EPSPS (setting [3]) of 0.044 U/mg.

B6: pMON21132: B. subtilis EPSPS from the PCR-derived aroE clone, expressed in E. coli GB100 (protein, UniProt P54374 1-280, looked up)
Shikimate dehydrogenase …: B5 Shikimate dehydrogenase …
For B6, in the data set with B. subtilis EPSPS (setting [3]), the EPSPS specific activity was found to be 0.71 U/mg.
